Experimental data: patent US20180362766A1, “Fluorogenic pH-Sensitive Dyes and Their Methods of Use” (Life Technologies Corporation, priority 2012, published 2018)

Tested on: A 431 cells
Test: Live cell internalization (endocytosis) of dye-labeled EGF, fluorescence imaging
Type: cell-based
Description: A 431 cells were grown in complete medium on 35 mm poly-D-lysine coated glass bottom culture dishes from MatTek. On the day of the assay, cells were rinsed once with LCIS +1% BSA (Live Cell imaging solution, Cat# A14291DJ) and placed at 37° C. Control dishes received LCIS; EGF pretreatment dishes received 10 μg/mL unlabeled EGF in LCIS. Cells were incubated at 37° C. for 30 minutes. Cells were then cooled to 4° C. on ice for 10 minutes. Compound (24)-labeled EGF was added to the dishes 1:10 at 5 μg/mL from a 50 μg/mL stock in LCIS. These dishes were incubated on ice for 30 minutes, then washed 2× with cold LCIS and allowed to warm to 37° C. for 60 minutes before imaging with standard TRITC and FITC filter sets on a DeltaVision Core microscope. […] All images were matched for gain and exposure times.

B1: Compound (24)-labeled EGF: epithelial growth factor (EGF) conjugated to Compound (24) STP ester, degree of substitution 1 (conjugate, UniProt P01133 23-1207, looked up)
Pro-epidermal growth factor: PQHWSCPEGTLAGNGNSTCVGPAPFLIFSHGNSIFRIDTEGTNYEQLVVDAGVSVIMDFHYNEKRIYWVDLERQLLQRVFLNGSRQERVCNIEKNVSGMAINWINEEVIWSNQQEGIITVTDMKGNNSHILLSALKYPANVAVDPVERFIFWSSEVAGSLYRADLDGVGVKALLETSEKITAVSLDVLDKRLFWIQYNREGSNSLICSCDYDGGSVHISKHPTQHNLFAMSLFGDRIFYSTWKMKTIWIANKHTGKDMVRINLHSSFVPLGELKVVHPLAQPKAEDDTWEPEQKLCKLRKGNCSSTVCGQDLQSHLCMCAEGYALSRDRKYCEDVNECAFWNHGCTLGCKNTPGSYYCTCPVGFVLLPDGKRCHQLVSCPRNVSECSHDCVLTSEGPLCFCPEGSVLERDGKTCSGCSSPDNGGCSQLCVPLSPVSWECDCFPGYDLQLDEKSCAASGPQPFLLFANSQDIRHMHFDGTDYGTLLSQQMGMVYALDHDPVENKIYFAHTALKWIERANMDGSQRERLIEEGVDVPEGLAVDWIGRRFYWTDRGKSLIGRSDLNGKRSKIITKENISQPRGIAVHPMAKRLFWTDTGINPRIESSSLQGLGRLVIASSDLIWPSGITIDFLTDKLYWCDAKQSVIEMANLDGSKRRRLTQNDVGHPFAVAVFEDYVWFSDWAMPSVMRVNKRTGKDRVRLQGSMLKPSSLVVVHPLAKPGADPCLYQNGGCEHICKKRLGTAWCSCREGFMKASDGKTCLALDGHQLLAGGEVDLKNQVTPLDILSKTRVSEDNITESQHMLVAEIMVSDQDDCAPVGCSMYARCISEGEDATCQCLKGFAGDGKLCSDIDECEMGVPVCPPASSKCINTEGGYVCRCSEGYQGDGIHCLDIDECQLGEHSCGENASCTNTEGGYTCMCAGRLSEPGLICPDSTPPPHLREDDHHYSVRNSDSECPLSHDGYCLHDGVCMYIEALDKYACNCVVGYIGERCQYRDLKWWELRHAGHGQQQKVIVVAVCVVVLVMLLLLSLWGAHYYRTQKLLSKNPKNPYEESSRDVRSRRPADTEDGMSSCPQPWFVVIKEHQDLKNGGQPVAGEDGQAADGSMQPTSWRQEPQLCGMGTEQGCWIPVSSDKGSCPQVMERSFHMPSYGTQTLEGGVEKPHSLLSANPLWQQRALDPPHQMELTQ
modifications: Pro-epidermal growth factor Compound (24) dye conjugate
**Q.** For B1, which “fluorescent signal from dye-labeled EGF internalization” value (cells pretreated with 10 μg/mL unlabeled EGF) is on record?
**A.** no signal

**Q.** What about the “fluorescent signal from dye-labeled EGF internalization” value (untreated (control) plates, 5 μg/mL labeled EGF, 60 minutes at 37° C.) of the same molecule?
**A.** Specific signal
